Laboratory results published in patent US20260201008A1, “SECRETIN-DERIVED GLP1R SELECTIVE AGONISTS” (GUBRA A/S, priority 2023, published 2026).
Numbered stars: 1 amine (or outer) side, 2 acyl side, 3 side chain; on linkers, the order of the positions; unused ones are H or OH. Square brackets hold non-standard residues; d marks the D form. Side chains are listed from the residue outwards. Ends that are not written are not given here. * marks the point of attachment. C20 diacid = O=C(O)CCCCCCCCCCCCCCCCCCC(=O)*; γGlu = O=C(O)[C@H](CCC(=O)[*:2])N[*:1]; AEEA = NCCOCCOCC(=O)O; Aib = CC(C)(N)C(=O)O

Experiments:
[1] = target: human GLP-1 receptor (hGLP1R) (human, UniProt P43220 24-463); assay: cell-based or functional assay
[2] = target: human secretin receptor (hSCTR) (human, UniProt P47872 23-440); assay: cell-based or functional assay
Sequence of human secretin receptor (hSCTR) (P47872 23-440): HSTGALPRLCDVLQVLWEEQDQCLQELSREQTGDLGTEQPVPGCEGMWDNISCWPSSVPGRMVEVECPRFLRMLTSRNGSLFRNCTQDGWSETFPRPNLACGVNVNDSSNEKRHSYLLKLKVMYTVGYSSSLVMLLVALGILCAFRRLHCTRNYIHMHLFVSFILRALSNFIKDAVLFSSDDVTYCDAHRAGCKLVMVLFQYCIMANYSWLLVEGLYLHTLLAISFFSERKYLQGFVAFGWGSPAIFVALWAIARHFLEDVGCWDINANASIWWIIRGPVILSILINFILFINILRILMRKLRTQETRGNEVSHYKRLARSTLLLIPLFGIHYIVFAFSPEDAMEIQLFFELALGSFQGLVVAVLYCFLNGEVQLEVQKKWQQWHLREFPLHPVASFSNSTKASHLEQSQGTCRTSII

Row | Binder | pEC50 hGLPR1 [1] | pEC50 hSCTR [2]
1 | H[Aib]EGTFTSDVS[Aib]LLEGAALQRFIQWLV-NH2 (N-terminus assumed; SMILES CC[C@H](C)[C@H](NC(=O)[C@H](Cc1ccccc1)NC(=O)[C@H](CCCNC(=N)N)NC(=O)[C@H](CCC(N)=O)NC(=O)[C@H](CC(C)C)NC(=O)[C@H](C)NC(=O)[C@H](C)NC(=O)CNC(=O)[C@H](CCC(=O)O)NC(=O)[C@H](CC(C)C)NC(=O)[C@H](CC(C)C)NC(=O)C(C)(C)NC(=O)[C@H](CO)NC(=O)[C@@H](NC(=O)[C@H](CC(=O)O)NC(=O)[C@H](CO)NC(=O)[C@@H](NC(=O)[C@H](Cc1ccccc1)NC(=O)[C@@H](NC(=O)CNC(=O)[C@H](CCC(=O)O)NC(=O)C(C)(C)NC(=O)[C@@H](N)Cc1c[nH]cn1)[C@@H](C)O)[C@@H](C)O)C(C)C)C(=O)N[C@@H](CCC(N)=O)C(=O)N[C@@H](Cc1c[nH]c2ccccc12)C(=O)N[C@@H](CC(C)C)C(=O)N[C@H](C(N)=O)C(C)C) [SEQ ID NO: 179] | 10.1 -log M | 6.3 -log M
2 | H[Aib]EGTFTSDVSELLEGAALQRFIQWLV-NH2 (N-terminus assumed; SMILES CC[C@H](C)[C@H](NC(=O)[C@H](Cc1ccccc1)NC(=O)[C@H](CCCNC(=N)N)NC(=O)[C@H](CCC(N)=O)NC(=O)[C@H](CC(C)C)NC(=O)[C@H](C)NC(=O)[C@H](C)NC(=O)CNC(=O)[C@H](CCC(=O)O)NC(=O)[C@H](CC(C)C)NC(=O)[C@H](CC(C)C)NC(=O)[C@H](CCC(=O)O)NC(=O)[C@H](CO)NC(=O)[C@@H](NC(=O)[C@H](CC(=O)O)NC(=O)[C@H](CO)NC(=O)[C@@H](NC(=O)[C@H](Cc1ccccc1)NC(=O)[C@@H](NC(=O)CNC(=O)[C@H](CCC(=O)O)NC(=O)C(C)(C)NC(=O)[C@@H](N)Cc1c[nH]cn1)[C@@H](C)O)[C@@H](C)O)C(C)C)C(=O)N[C@@H](CCC(N)=O)C(=O)N[C@@H](Cc1c[nH]c2ccccc12)C(=O)N[C@@H](CC(C)C)C(=O)N[C@H](C(N)=O)C(C)C) [SEQ ID NO: 180] | 10.8 -log M | 6.7 -log M
3 | H[Aib]EGTFTSDVSILK([AEEA-AEEA-γGlu-C20 diacid])EEA[Aib]LQRFLEHLV-NH2 [SEQ ID NO: 172] | 10.8 -log M | 7.7 -log M
4 | H[Aib]LGTFTSDVSYLK([AEEA-AEEA-γGlu-C20 diacid])EEA[Aib]LQRFLEHLV-NH2 [SEQ ID NO: 170] | 10.6 -log M | 4.6 -log M
5 | H[Aib]EGTFTSDVSWLLEGAALQRFIQWLV-NH2 (N-terminus assumed; SMILES CC[C@H](C)[C@H](NC(=O)[C@H](Cc1ccccc1)NC(=O)[C@H](CCCNC(=N)N)NC(=O)[C@H](CCC(N)=O)NC(=O)[C@H](CC(C)C)NC(=O)[C@H](C)NC(=O)[C@H](C)NC(=O)CNC(=O)[C@H](CCC(=O)O)NC(=O)[C@H](CC(C)C)NC(=O)[C@H](CC(C)C)NC(=O)[C@H](Cc1c[nH]c2ccccc12)NC(=O)[C@H](CO)NC(=O)[C@@H](NC(=O)[C@H](CC(=O)O)NC(=O)[C@H](CO)NC(=O)[C@@H](NC(=O)[C@H](Cc1ccccc1)NC(=O)[C@@H](NC(=O)CNC(=O)[C@H](CCC(=O)O)NC(=O)C(C)(C)NC(=O)[C@@H](N)Cc1c[nH]cn1)[C@@H](C)O)[C@@H](C)O)C(C)C)C(=O)N[C@@H](CCC(N)=O)C(=O)N[C@@H](Cc1c[nH]c2ccccc12)C(=O)N[C@@H](CC(C)C)C(=O)N[C@H](C(N)=O)C(C)C) [SEQ ID NO: 183] | 10.3 -log M | 6.8 -log M
6 | H[Aib]EGTFTSDVSELK([AEEA-AEEA-γGlu-C20 diacid])E[Aib]AAEQRFLEHLV-NH2 [SEQ ID NO: 18] | 10.5 -log M | 6.3 -log M
7 | H[Aib]EGTFTSDVSRLLEGAALQRFIQWLV-NH2 (N-terminus assumed; SMILES CC[C@H](C)[C@H](NC(=O)[C@H](Cc1ccccc1)NC(=O)[C@H](CCCNC(=N)N)NC(=O)[C@H](CCC(N)=O)NC(=O)[C@H](CC(C)C)NC(=O)[C@H](C)NC(=O)[C@H](C)NC(=O)CNC(=O)[C@H](CCC(=O)O)NC(=O)[C@H](CC(C)C)NC(=O)[C@H](CC(C)C)NC(=O)[C@H](CCCNC(=N)N)NC(=O)[C@H](CO)NC(=O)[C@@H](NC(=O)[C@H](CC(=O)O)NC(=O)[C@H](CO)NC(=O)[C@@H](NC(=O)[C@H](Cc1ccccc1)NC(=O)[C@@H](NC(=O)CNC(=O)[C@H](CCC(=O)O)NC(=O)C(C)(C)NC(=O)[C@@H](N)Cc1c[nH]cn1)[C@@H](C)O)[C@@H](C)O)C(C)C)C(=O)N[C@@H](CCC(N)=O)C(=O)N[C@@H](Cc1c[nH]c2ccccc12)C(=O)N[C@@H](CC(C)C)C(=O)N[C@H](C(N)=O)C(C)C) [SEQ ID NO: 178] | 10.2 -log M | 7.2 -log M
8 | H[Aib]EGTFTSDVSYLLEGAALQRFIQWLV-NH2 (N-terminus assumed; SMILES CC[C@H](C)[C@H](NC(=O)[C@H](Cc1ccccc1)NC(=O)[C@H](CCCNC(=N)N)NC(=O)[C@H](CCC(N)=O)NC(=O)[C@H](CC(C)C)NC(=O)[C@H](C)NC(=O)[C@H](C)NC(=O)CNC(=O)[C@H](CCC(=O)O)NC(=O)[C@H](CC(C)C)NC(=O)[C@H](CC(C)C)NC(=O)[C@H](Cc1ccc(O)cc1)NC(=O)[C@H](CO)NC(=O)[C@@H](NC(=O)[C@H](CC(=O)O)NC(=O)[C@H](CO)NC(=O)[C@@H](NC(=O)[C@H](Cc1ccccc1)NC(=O)[C@@H](NC(=O)CNC(=O)[C@H](CCC(=O)O)NC(=O)C(C)(C)NC(=O)[C@@H](N)Cc1c[nH]cn1)[C@@H](C)O)[C@@H](C)O)C(C)C)C(=O)N[C@@H](CCC(N)=O)C(=O)N[C@@H](Cc1c[nH]c2ccccc12)C(=O)N[C@@H](CC(C)C)C(=O)N[C@H](C(N)=O)C(C)C) [SEQ ID NO: 181] | 10.3 -log M | 6.7 -log M
9 | H[Aib]EGTFTSDVSGLK([AEEA-AEEA-γGlu-C20 diacid])EEA[Aib]LQRFLEHLV-NH2 [SEQ ID NO: 167] | 11.2 -log M | 7 -log M

Next, values leading:

Row | pEC50 hGLPR1 [1] | pEC50 hSCTR [2] | Binder
10 | 10.5 -log M | 5.5 -log M | H[Aib]EGTFTSDVSYLFEEA[Aib]LQRFLEK([AEEA-AEEA-γGlu-C20 diacid])LV-NH2 [SEQ ID NO: 176]
11 | 10.8 -log M | 6.3 -log M | H[Aib]EGTFTSDVSFLLEGAALQRFIQWLV-NH2 (N-terminus assumed; SMILES CC[C@H](C)[C@H](NC(=O)[C@H](Cc1ccccc1)NC(=O)[C@H](CCCNC(=N)N)NC(=O)[C@H](CCC(N)=O)NC(=O)[C@H](CC(C)C)NC(=O)[C@H](C)NC(=O)[C@H](C)NC(=O)CNC(=O)[C@H](CCC(=O)O)NC(=O)[C@H](CC(C)C)NC(=O)[C@H](CC(C)C)NC(=O)[C@H](Cc1ccccc1)NC(=O)[C@H](CO)NC(=O)[C@@H](NC(=O)[C@H](CC(=O)O)NC(=O)[C@H](CO)NC(=O)[C@@H](NC(=O)[C@H](Cc1ccccc1)NC(=O)[C@@H](NC(=O)CNC(=O)[C@H](CCC(=O)O)NC(=O)C(C)(C)NC(=O)[C@@H](N)Cc1c[nH]cn1)[C@@H](C)O)[C@@H](C)O)C(C)C)C(=O)N[C@@H](CCC(N)=O)C(=O)N[C@@H](Cc1c[nH]c2ccccc12)C(=O)N[C@@H](CC(C)C)C(=O)N[C@H](C(N)=O)C(C)C) [SEQ ID NO: 177]
12 | 10.5 -log M | 5.1 -log M | H[Aib]IGTFTSDVSYLK([AEEA-AEEA-γGlu-C20 diacid])EEA[Aib]LQRFLEHLV-NH2 [SEQ ID NO: 175]
13 | 9.8 -log M | 4.5 -log M | H[Aib]HGTFTSDVSYLK([AEEA-AEEA-γGlu-C20 diacid])EEA[Aib]LQRFLEHLV-NH2 [SEQ ID NO: 171]
14 | 11.1 -log M | 6.5 -log M | HAEGTFTSDVSYLK([AEEA-AEEA-γGlu-C20 diacid])EEA[Aib]LQRFLEHLV-NH2 [SEQ ID NO: 166]
15 | 10.4 -log M | 6.3 -log M | H[Aib]EGTFTSDVSYLK([AEEA-AEEA-γGlu-C20 diacid])EEA[Aib]LQRFLEWLV-NH2 [SEQ ID NO: 169]
16 | 10.3 -log M | 6.8 -log M | H[Aib]EGTFTSDVSGLLEGAALQRFIQWLV-NH2 (N-terminus assumed; SMILES CC[C@H](C)[C@H](NC(=O)[C@H](Cc1ccccc1)NC(=O)[C@H](CCCNC(=N)N)NC(=O)[C@H](CCC(N)=O)NC(=O)[C@H](CC(C)C)NC(=O)[C@H](C)NC(=O)[C@H](C)NC(=O)CNC(=O)[C@H](CCC(=O)O)NC(=O)[C@H](CC(C)C)NC(=O)[C@H](CC(C)C)NC(=O)CNC(=O)[C@H](CO)NC(=O)[C@@H](NC(=O)[C@H](CC(=O)O)NC(=O)[C@H](CO)NC(=O)[C@@H](NC(=O)[C@H](Cc1ccccc1)NC(=O)[C@@H](NC(=O)CNC(=O)[C@H](CCC(=O)O)NC(=O)C(C)(C)NC(=O)[C@@H](N)Cc1c[nH]cn1)[C@@H](C)O)[C@@H](C)O)C(C)C)C(=O)N[C@@H](CCC(N)=O)C(=O)N[C@@H](Cc1c[nH]c2ccccc12)C(=O)N[C@@H](CC(C)C)C(=O)N[C@H](C(N)=O)C(C)C) [SEQ ID NO: 182]
17 | 10.9 -log M | 7 -log M | H[Aib]EGTFTSDVSWLK([AEEA-AEEA-γGlu-C20 diacid])EEA[Aib]LQRFLEHLV-NH2 [SEQ ID NO: 174]
18 | 10.9 -log M | 6.8 -log M | H[Aib]EGTFTSDVSFLK([AEEA-AEEA-γGlu-C20 diacid])EEA[Aib]LQRFLEHLV-NH2 [SEQ ID NO: 173]
